The text below walks through data of the nanobody polyreactivity screen of Harvey et al. (2022).

The data set can be described thus: yeast display, Sf9 membrane polyspecificity reagent, FACS + sequencing; frameworks hold sequencing errors. A digest of the protocol:
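Using colony PCR, genes from sorted yeast display clones were amplified, then sequenced on MiSeq at 2 × 250 and filtered by CDR length. The clones had been stained with 10% biotinylated, detergent-solubilized Sf9 membrane reagent for 1 hour at 4 °C and sorted by FACS into low and high (top ~1%) gates on anti-HA and streptavidin fluorescence. Polyreactivity labels come from the gate of origin.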
As for “QVQLVESGGGLVQAGGSLRLSCAASGRTFRYYAMGWYRQAPGKESEFVARISSSGSSTYSADSVKGRFTISRDNAKNTVYLQMNSLKPEDTAVYYCAKTVLPYGGSNGLKWYYYWGQGTQVTVSS”, the “polyreactivity (PSR sort gate)” value is “high polyreactivity”.
For “QVQLVESGGGLVQAGGSLRLSCAASGRTFRYYAMGWYRQAPGTERELVATITGSGGSTYYADSVKGRFTISRDNAKNSVYLQMNSLKPEDTAVYYCNARKVRYPYRWYDYWGQGTQVTVSS” the value was “high polyreactivity”.
Next, “QVQLVESGGGLVQAGGSLRLSCAASGRTFRYYAMGWYRQPPGKERELVATITGSGGSTYYADSVKGRFTISRDNAKNTVYVQMNSLKPEDTAVYDCNARKVRYPYRWYDYWGQGTQVTVSS”: “high polyreactivity”; “QVQLVESGGGLVQAGGSLRLSCAASGRTFRYYAMGWYRQTPGKERELVATISKSGGSTYYADSVKGRFTISRDNAKNTVYLQMNSLKPEDTAVYYCATSKSYSAFDYWGQGTQVTVSS”: “high polyreactivity”.
As to “QVQLVESGGGLVQAGGSLRLSCAASGRTFRYYVMGWYRQAPGKERELVAAITYSGGGTYYADSVKGRFTISRDNAKNTVYLQMNSLKPEDTAVYYCAAARTYQYDKYYYWGQGTQVTVSS”, the “polyreactivity (PSR sort gate)” value is recorded as “high polyreactivity”.
With “QVQLVESGGGLVQAGGSLRLSCAASGRTFSAYAMGWYRQAPGKERELVAAISRSGGRTYYADSVKGRFTISRDNAKNTVYLEMNSLKPEDTAVYYCNARNLRDNQCTYDYWGQGTQVTVSS”, the “polyreactivity (PSR sort gate)” value was “high polyreactivity”.
Take “QVQLVESGGGLVQAGGSLRLSCAASGRTFSAYAMGWYRQAPGKERELVAAITLSVGSTYYADSVKGRFTISRDNAKNTVYLQMNSLKPEDTAVYYCNKYKKGEGGITIVRFDYWGQGTQVTVSS”: the “polyreactivity (PSR sort gate)” value is given as “low polyreactivity”.
As for “QVQLVESGGGLVQAGGSLRLSCAASGRTFSAYAMGWYRQAPGKERELVARITSVDSTNYADSVKGRFTISRDNAKNTVYLQMNSLKPEDTAVYYCNATFGYPCVDYDDYWGQGTQGTVSS”, the “polyreactivity (PSR sort gate)” value is listed as “low polyreactivity”.
As to “QVQLVESGGGLVQAGGSLRLSCAASGRTFSAYARGWYRQAPGKERELVAAISRRGGSTYYADSVKGRFTISRDNAKNTVYLQMNSLKPEDTAVYYCAADVYKQYGYYYWGQGTLVTVSS”, the “polyreactivity (PSR sort gate)” value is “high polyreactivity”.
Take “QVQLVESGGGLVQAGGSLRLSCAASGRTFSAYTMGWYRQAPGKERELVAAISRRGGSTYYADSVKGRFTISRDNAKNTVYLQMNSLKPEDTAVYYCATKSQYDYDYWGHGTQVTVSS”: the “polyreactivity (PSR sort gate)” value is recorded as “high polyreactivity”.
For “QVQLVESGGGLVQAGGSLRLSCAASGRTFSEYAMGWYRQAPGKERELVAAITRSGGGTYYADSVKGRFTISRDNAKNTVYLQMNSLKPEDTAVYYCATQSFSPYDYTDEYWGQGTQVTVSS” the value was “high polyreactivity”.
For “QVQLVESGGGLVQAGGSLRLSCAASGRTFSFYAMGWYRPAPGKERELVAAISSGTRTYYADSVKGRFTISRDNAKNTFYLQMNSLKPEDTAVYYCAARPKWTASWYYYWGQGTQVTVSS” the value was “high polyreactivity”.
“QVQLVESGGGLVQAGGSLRLSCAASGRTFSGYAMGWYRQAPGKEREFVAVITYSGGSTYYADSVKGRFTMSRVNAKNTVYLQMNSLKPEDTAVYYCNADYVIFYQLVDFDYWGQGTQVTVSS”: the “polyreactivity (PSR sort gate)” value is on record as “low polyreactivity”.
Consider “QVQLVESGGGLVQAGGSLRLSCAASGRTFSINAMGWYSQAPGKERELVAAISYTGGSTYYADSVKGRFTISRDNAKNTVYLQMNSLKPEDTAVYYCAASSSRTYYGRYYYWGQGTQVTVSS”, for which the “polyreactivity (PSR sort gate)” value is reported as “high polyreactivity”.
On to “QVQLVESGGGLVQAGGSLRLSCAASGRTFSIYAMGWYRQAPGKERELVAAISNGGRTKYADSVKGRFTISRDNAKNTVYLQMNSLKPEDTAVYYCAASRPRPPSSRRMDYWGQGTQVTVSS”, for which the “polyreactivity (PSR sort gate)” value is “high polyreactivity”.
Next, “QVQLVESGGGLVQAGGSLRLSCAASGRTFSIYTMGWYRQAPGKERELVASIRRSSGSTYYADSVKGRFTISRDNAKNTVYLQMNSLKPEDTAVYYCAADRIRLDSRKFDYWGQGTQVTVSS”: “low polyreactivity”.
As to “QVQLVESGGGLVQAGGSLRLSCAASGRTFSKYVMGWYRQAPGKERELVATITSGGSTYYADSVKGRFTISRDNAKNTVYLQMNSLKPEDTAVYYCAARIWYYNYWGQGTQVTVSS”, the “polyreactivity (PSR sort gate)” value is listed as “high polyreactivity”.
For “QVQLVESGGGLVQAGGSLRLSCAASGRTFSLNAMGWYRPAPGKEREFVAAISSTGGSTYYADSVKGRFTISRDNAKNTVYLQMNSLKPEDTAVYYCAKRSVYRTAQGRYSVAYDYWGQGTQVTVSS” the value was “high polyreactivity”; for “QVQLVESGGGLVQAGGSLRLSCAASGRTFSNYAMGGYRQAPGKERELVAAISERGGSTYYADSVKGRFTISRDNPKNSVFVQLNSLKPEDTAVYDCNALFRLRAYAEMDYWGQGTQVTVSS”, “high polyreactivity”; for “QVQLVESGGGLVQAGGSLRLSCAASGRTFSNYAMGWYRQAPGKERELVAAIRSGVRTYYADSVKGRFTISRDNAKNTVYLQMNSLKPEDTAVYYCAVATGLLYKSHGYWGQGTQVTVSS”, “low polyreactivity”.
On to “QVQLVESGGGLVQAGGSLRLSCAASGRTFSNYVMGWSRQAPGKERELVAAITYSGGSTYYADSVKGRFTISRDNAKYTVYLQMNSLKPEDTAVYYCARRWGGSGYYYWGQGTQVTVSS”, for which the “polyreactivity (PSR sort gate)” value is given as “high polyreactivity”.
For “QVQLVESGGGLVQAGGSLRLSCAASGRTFSPYAMGWYRQAPGKERELVAAITSRGASTYYADSVKGRFTISRDNAKNTVYLQMNSLKPEDTAVYYWNSGRTYRRLGDYWGQGTQVTVSS” the value was “high polyreactivity”; for “QVQLVESGGGLVQAGGSLRLSCAASGRTFSQYAMGWYRQAPGKERELVAAISWSGDSTYYADSVKGRFTISRDNAKNTVYLQMNSLKPEDTAVYDCAADRRVETPRYDYWGQGTQVTVSS”, “low polyreactivity”.
For the sequence “QVQLVESGGGLVQAGGSLRLSCAASGRTFSRNAKGWYRQAPGKERELVAAISWSGGSTYYADSVKGRFTISRDNAKNTVYLQMNSLKPEDTAVYYCAKVLGRTYNYWGQGTQVTVSS”, the “polyreactivity (PSR sort gate)” value is “high polyreactivity”.
For “QVQLVESGGGLVQAGGSLRLSCAASGRTFSRNAMAWYRQAPGKERELVAAISRRGVSTYYADSVKGRFTISRDNAKNTVYLQMNSLKPDDTAVFYCNTRGTYRYDYWGQGTQVTVSS” the value was “low polyreactivity”; for “QVQLVESGGGLVQAGGSLRLSCAASGRTFSRNAMGWYRQAPGKERELVAAITKGGGSTYYADSVKGRFTISRDNAKNTVYLQMNSLKPEDTAVYYCAAYKPSTRRYDYWGQGTQVTVSS”, “high polyreactivity”.
For “QVQLVESGGGLVQAGGSLRLSCAASGRTFSRNAMGWYRQAPGKERELVASISRSGASTYYADSVKGRFTISRDNAKNTVYLQMNSLKPEDTAVYYCNADVYSTYYNYNYWVQGTQVTVSS”, the “polyreactivity (PSR sort gate)” value is reported as “high polyreactivity”.
For “QVQLVESGGGLVQAGGSLRLSCAASGRTFSRNAMGWYRQAPGNERELLAASSWSGGRTYYADSVKGRFTISRDNAKNTFYLQMNSLKPEDTAVYYCAAGGGTGGSRYDSWGQGTQVTVSS” the value was “high polyreactivity”; for “QVQLVESGGGLVQAGGSLRLSCAASGRTFSRYAIGWYRQAPGKERDLVAAITRTGGSTYYADSVKGRFTISRDNAKNTVYLQMNSLKPEDTAVYYCAAAYPGVWYDYNYWGQGTQVTVSS”, “high polyreactivity”.
For “QVQLVESGGGLVQAGGSLRLSCAASGRTFSRYAMGWYRQAPGKERELVAAIRGNSGNTYYADSVKGRFTISRDNAKNTVYLQMNSLKPEDTAVYYCAKPFNIWGQGTQVTVSS” the value was “high polyreactivity”; for “QVQLVESGGGLVQAGGSLRLSCAASGRTFSRYTMGWYRQAPGKERELVAAISVNGGTTHYADSVKGRFTISRDNAKNTVYLQMNSLKPEDTAVYYCNARRRVGKYKYDYWGQGTQVTVSS”, “high polyreactivity”.
With “QVQLVESGGGLVQAGGSLRLSCAASGRTFSSNAKGWYRQAPGKERELVASISFRGGRTYYADSVKGRFTISRDNAKNTVYLQMNSLKPEDTAVYYCVSGTIRTGYGYWGQGTQVTVSS”, the “polyreactivity (PSR sort gate)” value is recorded as “high polyreactivity”.
With “QVQLVESGGGLVQAGGSLRLSCAASGRTFSSYAMGWYRQAPGKERELVAAITRTGGRTYYAYSVKGRFTISRDNAKNSVYLQMNSLKPEDTAVYFCAALYIYRTFAALSRYDYWGQGTQVTVSS”, the “polyreactivity (PSR sort gate)” value was “high polyreactivity”.
As for “QVQLVESGGGLVQAGGSLRLSCAASGRTFSSYTMGWYRQAPGKERELVASITNNGGSTYYADSVKGRFTISRDNAKNTVYLQMNSLKPEDTAVYYCAVDSRGKLGISGEYGYWGQGTQVTVSS”, the “polyreactivity (PSR sort gate)” value is recorded as “low polyreactivity”.
In the case of “QVQLVESGGGLVQAGGSLRLSCAASGRTFSVNAMGWYRKAPGKERELVAAISWSTGSTYYADSVKGRFTISRDNAKNTVSLQMNSLKPEDTAVYYCAKLYEYRRSRYRTYGYWGQGTQVTVSS”, the “polyreactivity (PSR sort gate)” value was “high polyreactivity”.
For “QVQLVESGGGLVQAGGSLRLSCAASGRTFSVNAMGWYRPAPGKERELVAAISSGGGTNYADSVKGRFTISRDNAKNTVYLQMNSLKPEDTAVYYCAARTFGYPSHRQEMEYWGQGTQVTVSS” the value was “low polyreactivity”; for “QVQLVESGGGLVQAGGSLRLSCAASGRTFSVNAMGWYRQAPGKERELVAAITSGASTNYADSVKGRFTISRDNAKNTVYLQMNSLKPEDTAVYYCAADYLYHQTSRGKYYSWGQGTQVTVSS”, “low polyreactivity”.
For “QVQLVESGGGLVQAGGSLRLSCAASGRTFSVNAMGWYRQAPGKEREMVAAITSGASTNYADSVKGRFTISRDNAKNTVYLQMNSLKPEDTAVYYCAADATYGHVPAEYDYWGQGTQVTVSS”, the “polyreactivity (PSR sort gate)” value is on record as “low polyreactivity”.
As to “QVQLVESGGGLVQAGGSLRLSCAASGRTFSVNAMGWYRQAPGNERELVAARRTGDSTNYADSVKGRFTFSRDNAKYTVYLPMNSLKPEDTSVDYCAADVWGSSAQRGWRKYYYWGQGTQVTVSS”, the “polyreactivity (PSR sort gate)” value was “high polyreactivity”.
For “QVQLVESGGGLVQAGGSLRLSCAASGRTFSVYAMVWYRQAPGKERELVADITRRGGSTTYADSVKGRFTISRDNAKNTVDLQMNSLKPEDTAVYYFNADGKAGGDYDYWGQGTQVTVSS” the value was “low polyreactivity”.
Next, “QVQLVESGGGLVQAGGSLRLSCAASGRTFSVYTMGWYRQAPGKERELVASINWSGGRTYYADSVKGRFTISRDNAKNSVYLQMNSLKPEDTAVYYCAATGWRTLYDYWGQGTQVTVSS”: “high polyreactivity”.
